The target in this assay is human 0T7T022 receptor (human). As to the kind of experiment: cell-based or functional assay.

“hRFRP-1-37 (peptide having the 56 (Ser) to 92 (Phe) amino acid sequence in SEQ ID NO:1)” came in with an ED50, inhibition of the cAMP level increased by forskolin of 21 nM. Regarding “rRFRP-1-37 (peptide having the 58 (Ser) to 94 (Phe) amino acid sequence in SEQ ID NO:50)”, the ED50, inhibition of the cAMP level increased by forskolin came to 30 nM.
